Experimental data from article PMC4324016 (2014).
Where two headings read alike, the source gives them in different places.

Key:
[1] = biological target: T1, HLA-Cw*0102 on TAP deficient 721.174 cells (human (endogenous in 721.174)); assay: FACS
[2] = biological target: T1, HLA-Cw*0102 on TAP deficient 721.174 …; assay: FACS; remark: listed apart in the source

Binder	Kd [1]	Kd [2]
VAPWNSDAL [VAPWNSDAL peptide]	140 nM	–
VAPWNSLSL	–	180 nM
VAPWNSFAL [VAPWNSFAL peptide]	140 nM	–
VAPWNSRAL [VAPWNSRAL peptide]	190 nM	–
